According to US20240226163A1 (Regeneron, published 2024):
Where a chain is given by its changes, count along the chain named. Values belong to the binder of their own block, whether it stands above or below them.

What was measured:
[1] = target: HLA-A*02:01 presenting MAGE-A4 286-294 peptide (…) (human); assay: cell-based or functional assay
[2] = target: HLA-A*02:01 presenting PCDHGC3 337-345 peptide (…) (human); assay: cell-based or functional assay
[3] = target: HLA-A*02:01 presenting CARD8 170-178 peptide (…) (human); assay: cell-based or functional assay
[4] = target: HLA-A*02:01 presenting FN1 2182-2190 peptide (…) (human); assay: cell-based or functional assay
[5] = target: HLA-A*02:01 presenting RABGAP1L 408-416 peptide (…) (human); assay: cell-based or functional assay
[6] = target: T1, HLA-A*02:01 presenting HEATR5A 1925-1933 peptide (…) (human); assay: cell-based or functional assay
[7] = target: HLA-A*02:01 presenting PSME2 145-153 peptide (…) (human); assay: cell-based or functional assay
[8] = target: HLA-A*02:01 presenting PLEKHH2 790-798 peptide (…) (human); assay: cell-based or functional assay
[9] = target: HLA-A*02:01 presenting SMIM11A 4-12 peptide (…) (human); assay: cell-based or functional assay
[10] = target: HLA-A*02:01 presenting TEP1 2156-2164 peptide (…) (human); assay: cell-based or functional assay
[11] = target: HLA-A*02:01 presenting MRPL37 334-342 peptide (…) (human); assay: cell-based or functional assay
[12] = target: HLA-A*02:01 presenting AOX1 795-803 peptide (…) (human); assay: cell-based or functional assay
[13] = target: HLA-A*02:01 presenting SHTN1 198-206 peptide (…) (human); assay: cell-based or functional assay
[14] = target: HLA-A*02:01 presenting NBAS 2063-2071 peptide (…) (human); assay: cell-based or functional assay
[15] = target: HLA-A*02:01 presenting CNOT1 1965-1973 peptide (…) (human); assay: cell-based or functional assay
[16] = target: HLA-A*02:01 presenting MAGE-A4 286-294 peptide (…) (human); assay: cell-based or functional assay; remark: listed apart in the source
[17] = target: HLA-A*02:01 presenting MAGE-A4 286-294 peptide (…) (human); assay: cell-based or functional assay; remark: listed apart in the source
[18] = target: T2, HLA-A*02:01 presenting MAGE-A4 286-294 peptide (…) (human); assay: flow cytometry, peptide-pulsed T2 cells;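 as to S/N ratio: ratio of peak mean fluorescence intensity across a 12-point threefold antibody dilution series to the MFI with secondary antibody only, live-gated cells by flow cytometry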
T2 construct: On peptide-pulsed T2 cells
Experimental: (§1) Samples were run on an Intellicyt iQue flow cytometer (Intellicyt) and results were analyzed using Forecyte analysis software (Intellicyte) to calculate the mean fluorescent intensity (MFI) after gating for live cells. MFI values were plotted in Graphpad Prism using a four-parameter logistic equation over a 12-point response curve to calculate EC₅₀ values. The secondary antibody alone (i.e. no primary antibody) for each dose-response curve is also included in the analysis as a continuation of the three-fold serial dilution and is represented as the lowest dose. The signal to noise (S/N) was determined by taking the ratio of the highest MFI on the dose response curve to the MFI in the secondary alone wells.

[19] = target: T3, HLA-A*02:01 presenting PCDHGC3 337-345 peptide (…) (human); assay: flow cytometry, peptide-pulsed T2 cells;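 as to S/N ratio: ratio of peak mean fluorescence intensity across a 12-point threefold antibody dilution series to the MFI with secondary antibody only, live-gated cells by flow cytometry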
T3 construct: On peptide-pulsed T2 cells; also called T2 Pulsed PCDHGC3 337-345

[20] = target: T4, HLA-A*02:01 presenting CARD8 170-178 peptide (…) (human); assay: flow cytometry, peptide-pulsed T2 cells;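 as to S/N ratio: ratio of peak mean fluorescence intensity across a 12-point threefold antibody dilution series to the MFI with secondary antibody only, live-gated cells by flow cytometry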
T4 construct: On peptide-pulsed T2 cells; also called T2 Pulsed CARD8 170-178

[21] = target: T5, HLA-A*02:01 presenting FN1 2182-2190 peptide (…) (human); assay: flow cytometry, peptide-pulsed T2 cells;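 as to S/N ratio: ratio of peak mean fluorescence intensity across a 12-point threefold antibody dilution series to the MFI with secondary antibody only, live-gated cells by flow cytometry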
T5 construct: On peptide-pulsed T2 cells; also called T2 Pulsed FN1 2182-2190

[22] = target: T6, HLA-A*02:01 presenting RABGAP1L 408-416 peptide (…) (human); assay: flow cytometry, peptide-pulsed T2 cells
T6 construct: On peptide-pulsed T2 cells; also called T2 Pulsed RABGAP1L 408-416

[23] = target: T1, HLA-A*02:01 presenting HEATR5A …; assay: flow cytometry, peptide-pulsed T2 cells
[24] = target: T7, HLA-A*02:01 presenting PSME2 145-153 peptide (…) (human); assay: flow cytometry, peptide-pulsed T2 cells
T7 construct: On peptide-pulsed T2 cells; also called T2 Pulsed PSME2 145-153

[25] = target: T8, HLA-A*02:01 presenting PLEKHH2 790-798 peptide (…) (human); assay: flow cytometry, peptide-pulsed T2 cells
T8 construct: On peptide-pulsed T2 cells; also called T2 Pulsed PLEKHH2 790-798

[26] = target: T9, HLA-A*02:01 presenting SMIM11A 4-12 peptide (…) (human); assay: flow cytometry, peptide-pulsed T2 cells
T9 construct: On peptide-pulsed T2 cells; also called T2 Pulsed SMIM11A 4-12

[27] = target: T10, HLA-A*02:01 presenting TEP1 2156-2164 peptide (…) (human); assay: flow cytometry, peptide-pulsed T2 cells
T10 construct: On peptide-pulsed T2 cells; also called T2 Pulsed TEP1 2156-2164

[28] = target: T11, HLA-A*02:01 presenting MRPL37 334-342 peptide (…) (human); assay: flow cytometry, peptide-pulsed T2 cells
T11 construct: On peptide-pulsed T2 cells; also called T2 Pulsed MRPL37 334-342

[29] = target: T12, HLA-A*02:01 presenting NBAS 2063-2071 peptide (…) (human); assay: flow cytometry, peptide-pulsed T2 cells
T12 construct: On peptide-pulsed T2 cells; also called T2 Pulsed NBAS 2063-2071

[30] = target: T13, HLA-A*02:01 presenting CNOT1 1965-1973 peptide (…) (human); assay: flow cytometry, peptide-pulsed T2 cells
T13 construct: On peptide-pulsed T2 cells; also called T2 Pulsed CNOT1 1965-1973

[31] = target: T3, HLA-A*02:01 presenting PCDHGC3 337-345 …; assay: flow cytometry, peptide-pulsed T2 cells; remark: listed apart in the source
Experimental: as §1

[32] = target: T4, HLA-A*02:01 presenting CARD8 170-178 …; assay: flow cytometry, peptide-pulsed T2 cells; remark: listed apart in the source
Experimental: as §1

[33] = target: T5, HLA-A*02:01 presenting FN1 2182-2190 …; assay: flow cytometry, peptide-pulsed T2 cells; remark: listed apart in the source
Experimental: as §1

[34] = target: T6, HLA-A*02:01 presenting RABGAP1L 408-416 …; assay: flow cytometry, peptide-pulsed T2 cells; remark: listed apart in the source
Experimental: as §1

[35] = target: T1, HLA-A*02:01 presenting HEATR5A …; assay: flow cytometry, peptide-pulsed T2 cells; remark: listed apart in the source
Experimental: as §1

[36] = target: T7, HLA-A*02:01 presenting PSME2 145-153 …; assay: flow cytometry, peptide-pulsed T2 cells; remark: listed apart in the source
Experimental: as §1

[37] = target: T8, HLA-A*02:01 presenting PLEKHH2 790-798 …; assay: flow cytometry, peptide-pulsed T2 cells; remark: listed apart in the source
Experimental: as §1

[38] = target: T9, HLA-A*02:01 presenting SMIM11A 4-12 …; assay: flow cytometry, peptide-pulsed T2 cells; remark: listed apart in the source
Experimental: as §1

[39] = target: T10, HLA-A*02:01 presenting TEP1 2156-2164 …; assay: flow cytometry, peptide-pulsed T2 cells; remark: listed apart in the source
Experimental: as §1

[40] = target: T11, HLA-A*02:01 presenting MRPL37 334-342 …; assay: flow cytometry, peptide-pulsed T2 cells; remark: listed apart in the source
Experimental: as §1

[41] = target: T14, HLA-A*02:01 presenting AOX1 795-803 peptide (…) (human); assay: flow cytometry, peptide-pulsed T2 cells
T14 construct: On peptide-pulsed T2 cells; also called T2 Pulsed AOX1 795-803
Experimental: as §1

[42] = target: T15, HLA-A*02:01 presenting SHTN1 198-206 peptide (…) (human); assay: flow cytometry, peptide-pulsed T2 cells
T15 construct: On peptide-pulsed T2 cells; also called T2 Pulsed SHTN1 198-206
Experimental: as §1

[43] = target: T12, HLA-A*02:01 presenting NBAS 2063-2071 …; assay: flow cytometry, peptide-pulsed T2 cells; remark: listed apart in the source
Experimental: as §1

[44] = target: T13, HLA-A*02:01 presenting CNOT1 1965-1973 …; assay: flow cytometry, peptide-pulsed T2 cells; remark: listed apart in the source
Experimental: as §1

[45] = target: T2, HLA-A*02:01 presenting MAGE-A4 286-294 …; assay: flow cytometry, peptide-pulsed T2 cells; remark: listed apart in the source
Experimental: as §1

EC50, NF-κB luciferase, Jurkat + IM-9, with 2 nM mAb5705 (anti-CD28) [1]: 2.1 nM
EC50, NF-κB luciferase, Jurkat + U266, with 2 nM mAb5705 (anti-CD28) [1]: 6.1 nM
Fold Activation, NF-κB luciferase, Jurkat + IM-9, with 2 nM mAb5705 (anti-CD28) [1]: 28.7 fold
Fold Activation, NF-κB luciferase, Jurkat + U266, with 2 nM mAb5705 (anti-CD28) [1]: 8.6 fold
EC50 (M), Jurkat/NF-κB-Luc reporter with pulsed T2 cells [2]: > 2e-08 M
Fold change, Jurkat/NF-κB-Luc reporter with pulsed T2 cells [2]: 1 fold
EC50 (M), Jurkat/NF-κB-Luc reporter with pulsed T2 cells [3]: > 2e-08 M
Fold change, Jurkat/NF-κB-Luc reporter with pulsed T2 cells [3]: 1.2 fold
EC50 (M), Jurkat/NF-κB-Luc reporter with pulsed T2 cells [4]: > 2e-08 M
Fold change, Jurkat/NF-κB-Luc reporter with pulsed T2 cells [4]: 1 fold
EC50 (M), Jurkat/NF-κB-Luc reporter with pulsed T2 cells [5]: > 2e-08 M
Fold change, Jurkat/NF-κB-Luc reporter with pulsed T2 cells [5]: 1 fold
EC50 (M), Jurkat/NF-κB-Luc reporter with pulsed T2 cells [6]: > 2e-08 M
Fold change, Jurkat/NF-κB-Luc reporter with pulsed T2 cells [6]: 1.2 fold
EC50 (M), Jurkat/NF-κB-Luc reporter with pulsed T2 cells [7]: > 2e-08 M
Fold change, Jurkat/NF-κB-Luc reporter with pulsed T2 cells [7]: 1 fold
EC50 (M), Jurkat/NF-κB-Luc reporter with pulsed T2 cells [8]: > 2e-08 M
Fold change, Jurkat/NF-κB-Luc reporter with pulsed T2 cells [8]: 2.8 fold
EC50 (M), Jurkat/NF-κB-Luc reporter with pulsed T2 cells [9]: > 2e-08 M
Fold change, Jurkat/NF-κB-Luc reporter with pulsed T2 cells [9]: 1 fold
EC50 (M), Jurkat/NF-κB-Luc reporter with pulsed T2 cells [10]: > 2e-08 M
Fold change, Jurkat/NF-κB-Luc reporter with pulsed T2 cells [10]: 1.2 fold
EC50 (M), Jurkat/NF-κB-Luc reporter with pulsed T2 cells [11]: > 2e-08 M
Fold change, Jurkat/NF-κB-Luc reporter with pulsed T2 cells [11]: 2.4 fold
EC50 (M), Jurkat/NF-κB-Luc reporter with pulsed T2 cells [12]: 2.1e-11 M
Fold change, Jurkat/NF-κB-Luc reporter with pulsed T2 cells [12]: 36 fold
EC50 (M), Jurkat/NF-κB-Luc reporter with pulsed T2 cells [13]: 1.3e-09 M
Fold change, Jurkat/NF-κB-Luc reporter with pulsed T2 cells [13]: 81.1 fold
EC50 (M), Jurkat/NF-κB-Luc reporter with pulsed T2 cells [14]: > 2e-08 M
Fold change, Jurkat/NF-κB-Luc reporter with pulsed T2 cells [14]: 1.3 fold
EC50 (M), Jurkat/NF-κB-Luc reporter with pulsed T2 cells [15]: > 2e-08 M
Fold change, Jurkat/NF-κB-Luc reporter with pulsed T2 cells [15]: 1 fold
EC50 (M), Jurkat/NF-κB-Luc reporter with pulsed T2 cells [16]: 2e-12 M
Fold change, Jurkat/NF-κB-Luc reporter with pulsed T2 cells [16]: 78.7 fold
EC50, NF-κB luciferase, Jurkat/NF-κB Luc + IM-9 [17]: 0.74 nM
EC50, NF-κB luciferase, Jurkat/NF-κB Luc + U266 [17]: 3.1 nM
Fold Activation, NF-κB luciferase, Jurkat/NF-κB Luc + IM-9 [17]: 41.9 fold
Fold Activation, NF-κB luciferase, Jurkat/NF-κB Luc + U266 [17]: 6.3 fold
B1: bsAb6054 (bispecific antibody, V domains shown)
VH 1: QVQLVESGGGLVKPGGSLRLSCAASGFTFSEYYLTWIRQAPGKGLDWIAYISSSGYNIYYADSVKDRFTISRDNGKNSLFLQMNNLRAEDTAVYFCAREGVTDGMDVWGQGTTVTVSS
VH 2: EVQLVESGGGLVQPGRSLRLSCAASGFTFADYTMHWVRQAPGKGLEWVSDISWNSGSIAYADSVKGRFTISRDNAKNSLYLQMNSLRTEDTAFYYCAKDSRGYGHYKYLGLDVWGQGTTVTVSS
VL: DIQMTQSPSSLSASVGDRVTITCRASQSIDTFLNWYQQKPGKVPKLLIYAASNLESGVPSRFSGSGSGTVFTLTISRLQPEDFATYYCQQSYSIPPITFGQGTRVEIK

EC50 [18]: 1.7 nM
B2: mAbM31339N (antibody, V domains shown)
VH: B1 VH 1 with K76N
VL: B1 VL
notes: Human variable regions with a mouse constant region (detected with anti-mouse Fc secondary; its isotype control is mIgG2a); also called mAb31339N

binding result [19]: no binding
binding result [20]: no binding
binding result [21]: no binding
binding result [22]: no binding
binding result [23]: no binding
binding result [24]: no binding
binding result [25]: no binding
binding result [26]: no binding
binding result [27]: no binding
binding result [28]: no binding
binding result [29]: no binding
binding result [30]: no binding
S/N ratio [31]: 1
S/N ratio [32]: 1
S/N ratio [33]: 1
S/N ratio [34]: 1
S/N ratio [35]: 1
S/N ratio [36]: 1
S/N ratio [37]: 1
S/N ratio [38]: 1
S/N ratio [39]: 1
S/N ratio [40]: 1
S/N ratio [41]: 131
S/N ratio [42]: 5
S/N ratio [43]: 1
S/N ratio [44]: 1
S/N ratio [45]: 310
B3: mAbH31339N2 (antibody, human IgG4 S228P, kappa, V domains shown)
VH: B1 VH 1
VL: DIQMTQSPSSLSASVGDRVTITCRASQSIDTFLNWYQQKPGKVPKLLIYAASNLESGVPSRFSGSGSGTVFTLTISRLQPEDFATYYCQQSYSIPPITFGQGTRVEIKR
notes: Fully human form (human constant region); also called parent antibody
